How the values were obtained:
purified protein = substrate: C[C@H](N)C(=O)O; assay: purified protein; conditions: 0.2 mM CRM M, 80 μM PLP, 4 μM CrmG, 200 mM Tris pH 7.5, 30 °C, covalent PLP-Ala external aldimine in crystal
[1] = substrate: NC(=O)CC[C@H](N)C(=O)O; assay: transamination kinetics with CRM M as acceptor; crystal structure; format: biochemical, Actinoalloteichus sp. WH1-2216-6; conditions: 0.2 mM CRM M, 80 μM PLP, 4 μM CrmG, 200 mM Tris pH 7.5, 30 °C, no external aldimine in crystal
[2] = substrate: N[C@@H](CCC(=O)O)C(=O)O; assay: transamination kinetics with CRM M as acceptor; crystal structure of external aldimine; format: biochemical, Actinoalloteichus sp. WH1-2216-6; conditions: 0.2 mM CRM M, 80 μM PLP, 4 μM CrmG, 200 mM Tris pH 7.5, 30 °C, covalent PLP-Glu external aldimine in crystal

B1: CrmG (Actinoalloteichus sp. WH1-2216-6) (protein)
chain: MTHPSGEPVYADAVLNGWLTSMGLGVEYVRAEGNTVYYLDDEGREVPVLDHACGFGSLIFGHNHPEIIAHAKAALDAGTVVHAQLSRQPRANQISRILNDIMRRETGRDDRYNAIFANSGAEANEICMKHAELERQERITALFAEIDAELDTAREALTTGTATLDTASLPLVGGGAGDVDGVIADIHRHNDERRAERPLFLTLDGSFHGKLVGSIQLTQNEPWRTPFTALSSPARFLPADEPELIGKIVEDERRSVLTLSLDKDTVRVVERDFPVVAAIFVEPVRGGSGMKTVTPELAEELHRLRDTLGCPLVVDEVQTGIGRTGAFFGSALLGIRGDYYTLAKAIGGGIVKNSVALIRQDRFLPAMEVIHSSTFAKDGLSASIALKVLEMVEADGGRVYQRVRERGQRLEAMLESVRADHSDVVSAVWGTGLMLALELRDQSNATSQAIREKAAHGFLGYVLAGFLLREHHIRVLPAGPRSGFLRFSPSLYITDEEIDRTETALRSLFTALRDQDGDRLVLS
notes: pET28a, N-terminal His-tag and 14 additional vector residues; expressed in E. coli BL21; dimer (114 kDa by DLS)
**Q.** What does the source list for B1?
**A.** Km (purified protein): 405.10 µM; Km [1]: 182.70 µM; Km [2]: 80.02 µM

Source: publication PMC7438487, “Structural studies reveal flexible roof of active site responsible for ω-transaminase CrmG overcoming by-product inhibition” (Communications Biology, 2020)
